Experimental findings from patent US9567379 (UNIVERSITY OF CHICAGO, dated 2017) are described below.

The Kd is the constant that tells how readily two partners part at equilibrium. A lower Kd goes with tighter binding.

The target in assay [1] is T1, human fibrinogen (human, UniProt P02671 20-644; P02675 31-491; P02679 27-437).
T1 construct: Amine-coupled to a CM5 chip
T1 sequence 1: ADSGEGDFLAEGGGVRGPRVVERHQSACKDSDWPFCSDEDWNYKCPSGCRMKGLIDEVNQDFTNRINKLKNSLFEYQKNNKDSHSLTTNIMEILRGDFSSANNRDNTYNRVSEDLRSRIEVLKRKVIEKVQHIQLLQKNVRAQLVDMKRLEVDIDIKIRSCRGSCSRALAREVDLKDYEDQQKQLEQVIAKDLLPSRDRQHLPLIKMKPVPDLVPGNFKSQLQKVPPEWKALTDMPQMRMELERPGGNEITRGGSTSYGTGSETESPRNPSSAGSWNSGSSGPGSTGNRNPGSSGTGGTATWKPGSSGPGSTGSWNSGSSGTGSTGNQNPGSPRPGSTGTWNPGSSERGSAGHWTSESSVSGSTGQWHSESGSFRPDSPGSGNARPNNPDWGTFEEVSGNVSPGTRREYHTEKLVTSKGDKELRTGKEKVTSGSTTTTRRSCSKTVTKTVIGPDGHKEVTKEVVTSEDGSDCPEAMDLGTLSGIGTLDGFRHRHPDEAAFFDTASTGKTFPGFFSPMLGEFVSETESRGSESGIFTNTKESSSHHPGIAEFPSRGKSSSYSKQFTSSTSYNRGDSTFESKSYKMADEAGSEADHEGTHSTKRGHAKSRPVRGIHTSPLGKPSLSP
T1 sequence 2: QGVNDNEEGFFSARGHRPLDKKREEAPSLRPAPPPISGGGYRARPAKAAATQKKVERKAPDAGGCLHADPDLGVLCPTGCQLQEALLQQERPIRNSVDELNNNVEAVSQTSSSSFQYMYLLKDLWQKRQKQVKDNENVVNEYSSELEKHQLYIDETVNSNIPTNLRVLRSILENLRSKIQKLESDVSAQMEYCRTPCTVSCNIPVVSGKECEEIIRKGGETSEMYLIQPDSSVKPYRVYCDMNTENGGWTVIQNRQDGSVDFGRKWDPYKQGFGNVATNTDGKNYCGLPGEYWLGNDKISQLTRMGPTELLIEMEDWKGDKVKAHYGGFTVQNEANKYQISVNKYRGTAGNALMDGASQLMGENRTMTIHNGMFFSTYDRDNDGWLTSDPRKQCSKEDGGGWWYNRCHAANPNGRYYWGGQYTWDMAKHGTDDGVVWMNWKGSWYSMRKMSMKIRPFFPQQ
T1 sequence 3: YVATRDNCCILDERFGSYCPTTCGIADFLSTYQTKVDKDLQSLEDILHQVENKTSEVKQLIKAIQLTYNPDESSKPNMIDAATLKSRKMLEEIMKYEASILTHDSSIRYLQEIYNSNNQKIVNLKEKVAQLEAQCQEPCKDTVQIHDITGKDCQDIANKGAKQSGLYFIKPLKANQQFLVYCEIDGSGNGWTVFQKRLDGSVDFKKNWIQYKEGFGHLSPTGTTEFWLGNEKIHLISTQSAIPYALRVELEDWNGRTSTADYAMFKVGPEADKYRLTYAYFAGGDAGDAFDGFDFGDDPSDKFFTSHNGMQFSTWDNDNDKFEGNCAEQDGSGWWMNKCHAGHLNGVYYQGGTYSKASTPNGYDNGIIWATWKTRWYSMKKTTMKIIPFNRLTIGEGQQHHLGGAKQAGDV
The assay can be described thus: SPR (BIAcore 3000), human fibrinogen amine-coupled to CM5 chip, Coa injected, 1:1 model. A general note: In SPR one partner is held on a chip, and binding of the other changes the refractive index at the surface.

Assay [2] concerns the target T2, human prothrombin (human, UniProt P00734 44-622).
T2 construct: Amine-coupled to a CM5 chip
The assay can be described thus: SPR (BIAcore 3000), human prothrombin amine-coupled to CM5 chip, Coa injected at 0-75 nM, 1:1 model.

In assay [3] the target is T2, human prothrombin. The assay can be described thus: SPR (BIAcore 3000), human prothrombin amine-coupled to CM5 chip, vWbp injected, 1:1 model; target prothrombin.
Assay [4] addresses T1, human fibrinogen. The assay can be described thus: SPR (BIAcore 3000), human fibrinogen amine-coupled to CM5 chip, vWbp injected, 1:1 model; target fibrinogen.

B1: coagulase (Coa), recombinant mature protein with the His6 tag removed by Factor Xa (other)
chain: IVTKDYSGKSQVNAGSKNGTLIDSRYLNSALYYLEDYIIYAIGLTNKYEYGDNIYKEAKDRLLEKVLREDQYLLERKKSQYEDYKQWYANYKKENPRTDLKMANFHKYNLEELSMKEYNELQDALKRALDDFHREVKDIKDKNSDLKTFNAAEEDKATKEVYDLVSEIDTLVVSYYGDKDYGEHAKELRAKLDLILGDTDNPHKITNERIKKEMIDDLNSIIDDFFMETKQNRPKSITKYNPTTHNYKTNSDNKPNFDKLVEETKKAVKEADDSWKKKTVKKYGETETKSPVVKEEKKVEEPQAPKVDNQQEVKTTAGKAEETTQPVAQPLVKIPQGTITGEIVKGPEYPTMENKTVQGEIVQGPDFLTMEQSGPSLSNNYTNPPLTNPILEGLEGSSSKLEIKPQGTESTLKGTQGESSDIEVKPQATETTEASQYGPRPQFNKTPKYVKYRDAGTGIREYNDGTFGYEARPRFNKPSETNAYNVTTHANGQVSYGARPTYKKPSETNAYNVTTHANGQVSYGARPTQNKPSKTNAYNVTTHGNGQVSYGARPTQNKPSKTNAYNVTTHANGQVSYGARPTYKKPSKTNAYNVTTHADGTATYGPRVTK
notes: also called functionally active Coa
As for B1, the Kd was found to be 93.1 nM in the assay with human fibrinogen [1] and 28 nM in the assay with human prothrombin [2].

B2: von Willebrand factor binding protein (vWbp), recombinant mature protein with the His6 tag removed by Factor Xa (other)
chain: VVSGEKNPYVSESLKLTNNKNKSRTVEEYKKSLDDLIWSFPNLDNERFDNPEYKEAMKKYQQRFMAEDEALKKFFSEEKKIKNGNTDNLDYLGLSHERYESVFNTLKKQSEEFLKEIEDIKKDNPELKDFNEEEQLKCDLELNKLENQILMLGKTFYQNYRDDVESLYSKLDLIMGYKDEERANKKAVNKRMLENKKEDLETIIDEFFSDIDKTRPNNIPVLEDEKQEEKNHKNMAQLKSDTEAAKSDESKRSKRSKRSLNTQNHKPASQEVSEQQKAEYDKRAEERKARFLDNQKIKKTPVVSLEYDFEHKQRIDNENDKKLVVSAPTKKPTSPTTYTETTTQVPMPTVERQTQQQIIYNAPKQLAGLNGESHDFTTTHQSPTTSNHTHNNVVEFEETSALPGRKSGSLVGISQIDSSHLTEREKRVIKREHVREAQKLVDNYKDTHSYKDRINAQQKVNTLSEGHQKRFNKQINKVYNGK
notes: also called functionally active vWbp
Regarding B2, the Kd stood at 38.4 nM with human prothrombin [3] and 484 nM with human fibrinogen [4].
